Assay results from patent US20110123544A1 (published 2011).

T1: recombinant human interleukin 12 (p40/p35 heterodimer) (human, UniProt P29460 23-328; P29459 23-219)
T1 chain 1: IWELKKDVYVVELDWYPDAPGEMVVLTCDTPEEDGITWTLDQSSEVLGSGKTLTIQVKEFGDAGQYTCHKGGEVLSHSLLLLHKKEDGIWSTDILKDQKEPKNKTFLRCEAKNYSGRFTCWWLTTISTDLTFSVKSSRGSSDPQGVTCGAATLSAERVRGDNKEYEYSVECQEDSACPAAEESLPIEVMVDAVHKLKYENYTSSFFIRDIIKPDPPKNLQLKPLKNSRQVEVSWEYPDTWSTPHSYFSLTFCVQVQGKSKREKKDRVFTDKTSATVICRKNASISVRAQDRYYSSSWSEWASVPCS
T1 chain 2: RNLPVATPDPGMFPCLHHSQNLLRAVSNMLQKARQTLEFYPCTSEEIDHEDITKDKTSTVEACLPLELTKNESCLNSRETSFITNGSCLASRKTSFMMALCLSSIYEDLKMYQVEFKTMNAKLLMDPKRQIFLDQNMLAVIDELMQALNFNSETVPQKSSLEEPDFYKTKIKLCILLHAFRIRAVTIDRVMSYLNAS

T2: recombinant human IL-12 (rhIL-12) (human, UniProt P29459 23-219; P29460 23-328)
T2 chain 1: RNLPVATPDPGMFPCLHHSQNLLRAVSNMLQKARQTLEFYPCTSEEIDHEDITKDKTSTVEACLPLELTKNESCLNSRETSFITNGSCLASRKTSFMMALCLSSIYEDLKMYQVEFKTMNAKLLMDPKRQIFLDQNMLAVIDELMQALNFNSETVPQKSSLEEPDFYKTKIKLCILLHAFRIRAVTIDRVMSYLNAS
T2 chain 2: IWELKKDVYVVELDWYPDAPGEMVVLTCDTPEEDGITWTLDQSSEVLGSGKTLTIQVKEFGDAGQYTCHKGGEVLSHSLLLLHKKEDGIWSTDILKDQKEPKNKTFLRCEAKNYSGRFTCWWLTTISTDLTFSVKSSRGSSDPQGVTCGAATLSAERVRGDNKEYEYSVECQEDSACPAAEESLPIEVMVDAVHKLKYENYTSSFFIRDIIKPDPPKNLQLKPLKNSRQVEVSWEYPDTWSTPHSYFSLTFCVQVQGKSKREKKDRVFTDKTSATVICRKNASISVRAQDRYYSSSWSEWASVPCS


Target: T1, recombinant human interleukin 12 …
Experiment: BIAcore

| koff [s⁻¹] | Binder |
| --- | --- |
| 0.000859 | QGSHDN [Y61 H95 Q] |
| 0.00208 | HISHDN [Y61 H96 I] |
| 0.00186 | HTSHDN [Y61 H96 T] |
| 0.0018 | HGFHDN [Y61 H97 F] |
| 0.0011 | HGSHRN [Y61 H101 R] |
| 0.000293 | HGSVDN [Y61 H98 V] |
| 0.00191 | HGHHDN [Y61 H97 H] |
| 0.00202 | TGSHDN [Y61 H95 T] |
| 0.00228 | KGSHDN [Y61 H95 K] |
| 0.00514 | FGSHDN [Y61 H95 F] |
| 0.00034 | HGSRDN [Y61 H98 R] |
| 0.00143 | HGAHDN [Y61 H97 A] |
| 0.00129 | HPSHDN [Y61 H96 P] |
| 0.000962 | HRSHDN [Y61 H96 R] |
| 0.00239 | HGWHDN [Y61 H97 W] |
| 0.003 | HGPHDN [Y61 H97 P] |

| koff [s⁻¹] | Binder |
| --- | --- |
| 0.00471 | PGSHDN [Y61 H95 P] |
| 0.00224 | HDSHDN [Y61 H96 D] |
| 0.000343 | HGSIDN [Y61 H98 I] |
| 0.00197 | HWSHDN [Y61 H96 W] |
| 0.0015 | AGSHDN [Y61 H95 A] |
| 0.00273 | HGYHDN [Y61 H97 Y] |
| 0.00193 | SGSHDN [Y61 H95 S] |
| 0.00229 | HGGHDN [Y61 H97 G] |
| 0.00224 | HGRHDN [Y61 H97 R] |
| 0.00465 | HGSHYN [Y61 H101 Y] |
| 0.00327 | HGSHHN [Y61 H101 H] |
| 0.00147 | LGSHDN [Y61 H95 L] |
| 0.000242 | HCSHDN [Y61 H96 C] |
| 0.000688 | HGSFDN [Y61 H98 F] |
| 0.00208 | HGIHDN [Y61 H97 I] |

Target: T2, recombinant human IL-12 (rhIL-12)
Experiment: BIAcore

| Binder | koff [s⁻¹] |
| --- | --- |
| QSYLRGTHPALL [Y61 L92 L] | 0.000728 |
| QSYCRGTHPALL [Y61 L92 C] | 0.000453 |
| QSYWRGTHPALL [Y61 L92 W] | 0.00072 |
| QSYSRGTHPALL [Y61 L92 S] | 0.000307 |
| QSYQRGTHPALL [Y61 L92 Q] | 0.000427 |
| QSYTRGTHPALL [Y61 L92 T] | 0.000408 |
| QSYARGTHPALL [Y61 L92 A] | 0.000357 |
| QSYNRGTHPALL [Y61 L92 N] | 0.000347 |
| QSYFRGTHPALL [Y61 L92 F] | 0.000449 |
| QSYGRGTHPALL [Y61 L92 G] | 0.000349 |
| QSYIRGTHPALL [Y61 L92 I] | 0.000618 |

More lines, now with the values ahead:

| koff [s⁻¹] | Binder |
| --- | --- |
| 0.000335 | QSYDYGTHPALL [Y61 L93 Y] |
| 0.000316 | QSYDTGTHPALL [Y61 L93 T] |
| 0.000276 | QSYDRITHPALL [Y61 L94 I] |
| 0.0003 | QSYDLGTHPALL [Y61 L93 L] |
| 0.000244 | QSYDRLTHPALL [Y61 L94 L] |
| 0.000341 | QSYDSGTHPALL [Y61 L93 S] |
| 0.00032 | QSYDCGTHPALL [Y61 L93 C] |
| 0.000295 | QSYDIGTHPALL [Y61 L93 I] |
| 0.0003 | QSYDQGTHPALL [Y61 L93 Q] |
| 0.000305 | QSYDRTTHPALL [Y61 L94 T] |
| 0.000349 | QSYDWGTHPALL [Y61 L93 W] |
| 0.000293 | QSYDRWTHPALL [Y61 L94 W] |
| 0.000392 | QSYDGGTHPALL [Y61 L93 G] |
| 0.000332 | QSYDRPTHPALL [Y61 L94 P] |
| 0.000269 | QSYDVGTHPALL [Y61 L93 V] |
| 0.000511 | QSYYRGTHPALL [Y61 L92 Y] |
| 0.000187 | QSYDRHTHPALL [Y61 L94 H] |
| 0.00031 | QSYDAGTHPALL [Y61 L93 A] |
| 0.000351 | QSYDRVTHPALL [Y61 L94 V] |
| 0.000316 | QSYDNGTHPALL [Y61 L93 N] |
| 0.00052 | QSYDRCTHPALL [Y61 L94 C] |
| 0.00025 | QSYDRQTHPALL [Y61 L94 Q] |
| 0.000349 | QSYDPGTHPALL [Y61 L93 P] |
| 0.000526 | QSYDRATHPALL [Y61 L94 A] |
| 0.000231 | QSYDRRTHPALL [Y61 L94 R] |
| 0.000287 | QSYDRSTHPALL [Y61 L94 S] |
| 0.000275 | QSYDMGTHPALL [Y61 L93 M] |
| 0.000253 | QSYDRDTHPALL [Y61 L94 D] |
| 0.000343 | QSYDDGTHPALL [Y61 L93 D] |
